Patent publication US20220273810A1 (IMCARE BIOTECH, published 2022)

T1: NS-SPIK (Normal Secreted serine protease inhibitor Kazal) (Homo sapiens (Human), UniProt P00995 24-79)
T1 construct: also called Normal Secreted SPIK
T1 sequence: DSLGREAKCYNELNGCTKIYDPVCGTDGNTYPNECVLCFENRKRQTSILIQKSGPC


target: AS-SPIK (Abnormal Secreted serine protease inhibitor Kazal) (Homo sapiens (Human)) (UniProt P00995); test: sandwich ELISA, S2-3 medium, complex captured on polyclonal anti-SPIK plate, anti-rabbit-HRP/TMB

OD | Binder
1.39 OD | IM-E2 (antibody, V domains shown, Rabbit monoclonal antibody) VH: QSVKESEGGLFKPTDTLTLTCTVSGFSLSAYAISWVRQAPGNGLEWIGAINSGGSAYYANWAKSRSTITRNTNLNTVTLKMTSLTAADTATYFCAREDIYDYGGAFDPWGPGTLVTVST VL: AYDMTQTPASVEVTVGGTVTIKCQASQGISSYLSWYQQKPGQPPKLLIYAATTLVSGVSSRFKGSGSGTQFTLTISGVECADAATYYCQQDYTTSNVDNTFGGGTEVVVKG

target: T1, NS-SPIK (Normal Secreted serine …); test: ELISA on a plate immobilised with NS-SPIK from pancreatic cells, OD450nm; antibody concentration not given
Description: Ten monoclonal antibodies described here were generated from rabbit. Briefly, rabbit were immunized with the recombinant AS-SPIK which contain different subsets of 23 extra amino acids (SEQ ID NO: 81). The blood was tested after three or four time imbursements by ELISA. Briefly, blood from immunized rabbits were reacted with plate coated with recombinant AS-SPIK. After washing, the color was developed by incubation of the plate with an anti-rabbit antibody labeled with HRP (horseradish peroxidase), and the optical density was measured after reaction with substrate TMB. The rabbit which is positive in test (produced antibody) was sacrificed. The monoclonal antibody was then established and further screened with ELISA using the plates immobilized with partially purified AS-SPIK from S2-3 cells, a cell line expresses high amount of AS-SPIK by integrated entire SPIK gene, Lu et. al Tumor-associated protein SPIK TATI suppresses serine protease dependent cell apoptosis, Apoptosis, 2008 13(4), 483-494 and NS—SPIK from pancreatic cells. Finally, 10 monoclonal antibodies which strongly bind AS-SPIK but not NS-SPIK were selected.

binding result | Binder
no binding | IM-F5 (antibody, V domains shown, Rabbit monoclonal antibody) VH: QSVKESEGGLFKPTDTLTLTCTVSGFSLSIYGVSWVRQAPGNGLEWIGIIYASGSADYASWAKSRSTITRNTNLNTVTLKMTSLTAADTATYFCAREDDTYGYTSSIWGPGTLVTVSS VL: AYDMTQTPASVSAAVGGTVTIKCQASQSISSYLNWYQQKPGQPPKRLIYRASTLASGVSSRFKGSGSGTQFTLTISGVECADAATYYCQQDYSSNNIDNTFGGGTEVVVKG
no binding | IM-C6 (antibody, V domains shown, Rabbit monoclonal antibody) VH: QSVKESEGGLFKPTDALTLTCTVSGFSLSSYAISWVRQAPGSGLEWIGAINTYGGTYYASWAKSRSTITRNTNENTVTLKMTSLTAADTATYFCARDFDSDAYTSASGGMDPWGPGTLVTVSS VL: AYDMTQTPASVEVAVGGTVTIKCQASQSINNYLSWYQQIPGQPPKLLIYRASTLASGVSSRFKGSGSGTQFTLTISGVQCADAATYYCQQGYTSNVDNVFGGGTEVVVKG
no binding | IM-D3 (antibody, V domains shown, Rabbit monoclonal antibody) VH: QSVKESEGGLFKPTDTLTLTCTVSGFSLSSYAIGWVRQAPGNGLEWIGTIVTSGIPYYANWAKSRSTITRNTNLNTVTLKMTSLTAADTATYFCARNLDPAYSTTRLDLWGQGTLVTVSS VL: AYDMTQTPASVSEPVRGTVTIKCQASQSISTALAWYQQKPGQPPKLLIYAASYLASGVPSRFSGSGSGTEFTLTISDLECADAATYYCHQGYSASNVDNTFGGGTEGGVKG
no binding | IM-G7 (antibody, V domains shown, Rabbit monoclonal antibody) VH: QSVKESEGGLFKPTDTLTLTCTVSGFSLSSNVISWVRQAPGKGLEWIGDIYVSGNTDYASWAKSRSTITRNANLNTVTLKMTSLTAADTATYFCARYDMSSDAFDPWGPGTLVTVSS VL: AYDMTQTPASVEVAVGGTVTIKCQASQNIGSYLSWYQHKPGQRPRLLMYRASTLASGVSSRFKGSGSGTEFTLTISGVQCDNAATYYCQQGYTNSGVDNTFGGGTEVVVKG
no binding | IM-G6 (antibody, V domains shown, Rabbit monoclonal antibody) VH: QSVKESEGGLFKPTDTLTLTCTVSGFSLSSYPISWVRQAPGNGLEWIGDIYASGSILYASWATGRSTITRNTNLNTVTLKMTSLTAADTATYFCARVSYSGGTDIWGPGTLVTVSS VL: AYDMTQTPASVEVAVGGTVTIKCQASEDIESYLAWYQQKPGQPPKLLIYRASTLPSGVPSRFKGSGSGTEFTLTISDLECADAATYYCQQDYSSSNVDNTFGGGTEVVVKG
no binding | IM-B10 (antibody, V domains shown, Rabbit monoclonal antibody; also called IM4-B10) VH: QSVKESEGGLFKPTDTLTLTCTVSGFSLSSYGVSWVRQAPGKGLEWIGSIWSGGTTDYASWAKSRSTITRNTNENTVTLKVTSLTAADTATYFCARGGYDYGYASNIWGPGTLVTVSS VL: AYDMTQTPASVEVAVGGTVTIKCQASESISSYLSWYQQKPGQPPKLLIYRASTLASGVPSRFSGSGSGTEFTLTISDGQCDDAATYYCQQGYSVSNVDNIFGGGTEVVVKG
no binding | IM-A6 (antibody, V domains shown, Rabbit monoclonal antibody; also called I-A6) VH: QSVKESEGGLFKPTDTLTLTCTVSGFSLSSYAISWVRQAPGNGLEWIGRINSGGATDYASWARSRSTITRDTNLNTVTLQMTSLTAADTATYFCAKEEYSYGGAYGMWGPGTLVTVSS VL: AYDMTQTPASVSAAVGGTVTIKCQASESISTYLSWLQQKPGQPPKLLIYKASTLASGVPSRFKGSGSGTEFTLTISGVQCDDAATYYCQQDYTISNVGNVFGGGTEVVVKG
no binding | IM-D5 (antibody, V domains shown, Rabbit monoclonal antibody) VH: QSVKESEGGLFKPTDTLTLTCTVSGFSLSSYAISWVRQAPGNGLEWIGAIGKSGSAYYASWAKSRSTITRNTNLNTVSLKMTSLTAADTATYFCARWDSVGWTDARLDLWGQGTLVTVSS VL: AYDMTQTPASVEVAVGGTVTIKCQASQSISTALAWYQQKPGQRPKLLIYGASKLASGVSSRFSGSGSGTEFTLTISGVECADAATYYCQQGYETSNVDNAFGGGTEVVVKG
no binding | IM-E2 (antibody, V domains shown, Rabbit monoclonal antibody) VH: QSVKESEGGLFKPTDTLTLTCTVSGFSLSAYAISWVRQAPGNGLEWIGAINSGGSAYYANWAKSRSTITRNTNLNTVTLKMTSLTAADTATYFCAREDIYDYGGAFDPWGPGTLVTVST VL: AYDMTQTPASVEVTVGGTVTIKCQASQGISSYLSWYQQKPGQPPKLLIYAATTLVSGVSSRFKGSGSGTQFTLTISGVECADAATYYCQQDYTTSNVDNTFGGGTEVVVKG
no binding | IM-A1 (antibody, V domains shown, Rabbit monoclonal antibody; also called I-A1) VH: QSVKESEGGLFKPTDTLTLTCTVSGFSLSSNAISWVRQAPGNGLEWIGAIGSSGSTYYASWAKSRSTVTRNTNLNTVTLKMTSLTAADTATYFCARWENIGYTNVRLDLWGQGTLVTVSS VL: AYDMTQTPASVEVAVGGTVTIKCQASQSISTALAWYQQKPGQPPKLLIYGASTLASGVSSRFKGSGSGTQFTLTISGVECADAATYYCQQGYSTSDVDNAFGGGTEG

target: AS-SPIK (Abnormal Secreted serine protease inhibitor Kazal) (Homo sapiens (Human)) (UniProt P00995); test: sandwich ELISA, HCC patient serum (serum AS-SPIK), complex captured on polyclonal anti-SPIK plate, anti-rabbit-HRP/TMB

OD | Binder
1.48 OD | IM-E2 (antibody, V domains shown, Rabbit monoclonal antibody) VH: QSVKESEGGLFKPTDTLTLTCTVSGFSLSAYAISWVRQAPGNGLEWIGAINSGGSAYYANWAKSRSTITRNTNLNTVTLKMTSLTAADTATYFCAREDIYDYGGAFDPWGPGTLVTVST VL: AYDMTQTPASVEVTVGGTVTIKCQASQGISSYLSWYQQKPGQPPKLLIYAATTLVSGVSSRFKGSGSGTQFTLTISGVECADAATYYCQQDYTTSNVDNTFGGGTEVVVKG
